Data taken from FireProtDB (doi:10.1016/0168-1656(93)90129-b).

B1: Ribonuclease HI, P0A7Y4 (parent)
chain: MLKQVEIFTDGSCLGNPGPGGYGAILRYRGREKTFSAGYTRTTNNRMELMAAIVALEALKEHCEVILSTDSQYVRQGITQWIHNWKKRGWKTADKKPVKNVDLWQRLDAALGQHQIKWEWVKGHAGHPENERCDELARAAAMNPTLEDTGYQVEV

Variants of: B1
Settings: Escherichia coli (strain K12), CD, reversible: yes, structure 2RN2, whole UniProt chain shown; for Tm / change of melting temperature, mutant - wild type (higher = more stable): Thermal; for ddG of mutation (higher = less stable) / denaturant midpoint (higher = more stable) / unfolding free energy: 25 °C, GdnHCl

Variant	Tm (pH 7.8, Sodium phosphate 20 mM) [°C]	change of melting temperature, mutant - wild type (higher = more stable) (pH 7.8, Sodium phosphate 20 mM) [°C]	Tm (pH 3, glycine-HCl 10 mM) [°C]	change of melting temperature, mutant - wild type (higher = more stable) (pH 3, glycine-HCl 10 mM) [°C]	ddG of mutation (higher = less stable) (pH 5.5, Sodium acetate 20 mM) [kcal/mol]	denaturant midpoint (higher = more stable) (pH 5.5, Sodium acetate 20 mM) [M]	unfolding free energy (pH 5.5, Sodium acetate 20 mM) [kcal/mol]	Tm (pH 5.5, Sodium acetate 20 mM) [°C]	change of melting temperature, mutant - wild type (higher = more stable) (pH 5.5, Sodium acetate 20 mM) [°C]	ddG of mutation (higher = less stable) (pH 8.2, Tris-HCl 20 mM) [kcal/mol]	denaturant midpoint (higher = more stable) (pH 8.2, Tris-HCl 20 mM) [M]	unfolding free energy (pH 8.2, Tris-HCl 20 mM) [kcal/mol]
MLKQVEIFTDGSCLGNPGPGGYGAILRYRGREKTFSAGYTRTTNNRMELMAAIVALEALKEHCEVILSTDSQYVRQGITQWIHNWKKRGWKTADKKPVKNVDLWQRLDAALGQAQIKWEWVKGHAGHPENERCDELARAAAMNPTLEDTGYQVEV	42.5	-7.7										
MLKQVEIFTDGSCLGNPGPGGYGAILRYRGREKTFSAGYTRTTNNRMELMAAIVALEALKEHCEVILSTDSQYVRQGITQWIANWKKRGWKTADKKPVKNVDLWQRLDAALGQHQIKWEWVKGHAGHPENERCDELARAAAMNPTLEDTGYQVEV	50	-0.2	51.5	2.1	-0.22	1.83	9.43	52.8	0.1	0.09	1.63	8.4
MLKQVEIFTDGSCLGNPGPGGYGAILRYRGREKTFSAGYTRTTNNRMELMAAIVALEALKEHCEVILSTDSQYVRQGITQWIHNWKKRGWKTADKKPVKNVDLWQRLDAALGQHQIKWEWVKGAAGHPENERCDELARAAAMNPTLEDTGYQVEV	50.3	0.1	51.1	1.7	-0.17	1.82	9.38	52.7	0	-0.05	1.66	8.54
MLKQVEIFTDGSCLGNPGPGGYGAILRYRGREKTFSAGYTRTTNNRMELMAAIVALEALKEACEVILSTDSQYVRQGITQWIANWKKRGWKTADKKPVKNVDLWQRLDAALGQHQIKWEWVKGHAGHPENERCDELARAAAMNPTLEDTGYQVEV	51.5	1.3										
MLKQVEIFTDGSCLGNPGPGGYGAILRYRGREKTFSAGYTRTTNNRMELMAAIVALEALKEHCEVILSTDSQYVRQGITQWIHNWKKRGWKTADKKPVKNVDLWQRLDAALGQHQIKWEWVKGHAGAPENERCDELARAAAMNPTLEDTGYQVEV			50.3	0.9	0.24	1.74	8.97			0.31	1.59	8.18
MLKQVEIFTDGSCLGNPGPGGYGAILRYRGREKTFSAGYTRTTNNRMELMAAIVALEALKEACEVILSTDSQYVRQGITQWIANWKKRGWKTADKKPVKNVDLWQRLDAALGQHQIKWEWVKGAAGAPENERCDELARAAAMNPTLEDTGYQVEV	51.7	1.5	54.9	5.5								
MLKQVEIFTDGSCLGNPGPGGYGAILRYRGREKTFSAGYTRTTNNRMELMAAIVALEALKEACEVILSTDSQYVRQGITQWIHNWKKRGWKTADKKPVKNVDLWQRLDAALGQHQIKWEWVKGHAGHPENERCDELARAAAMNPTLEDTGYQVEV	51.2	1	50.7	1.3	-0.36	1.86	9.57			-0.58	1.76	9.07
MLKQVEIFTDGSCLGNPGPGGYGAILRYRGREKTFSAGYTRTTNNRMELMAAIVALEALKEHCEVILSTDSQYVRQGITQWIHNWKKRGWKTADKKPVKNVDLWQRLDAALGQHQIKWEWVKGAAGAPENERCDELARAAAMNPTLEDTGYQVEV	50.1	-0.1	53	3.6				52.1	-0.6			
